How the values were obtained:
Assay in all cases: cell-based or functional assay
[1] = target: HIV-1 Env of isolate MGRM-F1-017 (subtype F) (HIV-1)
[2] = target: envelope of aMLV pseudovirus (negative control)
[3] = target: HIV-1 Env of isolate MGRM-D-011 (subtype D) (HIV-1)
[4] = target: HIV-1 Env of isolate MGRM-F1-020 (subtype F) (HIV-1)
[5] = target: HIV-1 Env of isolate MGRM-F1-010 (subtype F) (HIV-1)
[6] = target: HIV-1 Env of isolate 92UG114 (subtype D) (HIV-1)
[7] = target: HIV-1 Env of isolate 92UG001 (subtype D) (HIV-1)
[8] = target: HIV-1 Env of isolate MGRM-D-021 (subtype D) (HIV-1)
[9] = target: HIV-1 Env of pseudovirus isolate MGRM-G-001 (subtype G) (HIV-1)
[10] = target: HIV-1 Env of isolate MGRM-D-001 (subtype D) (HIV-1)
[11] = target: HIV-1 Env of isolate MGRM-D-005 (subtype D) (HIV-1)
[12] = target: HIV-1 Env of isolate MGRM-F1-021 (subtype F) (HIV-1)
[13] = target: HIV-1 Env of isolate MGRM-D-029 (subtype D) (HIV-1)
[14] = target: HIV-1 Env of isolate 98CN009 (subtype CRF07_BC) (HIV-1)
[15] = target: HIV-1 Env of isolate MGRM-D-022 (subtype D) (HIV-1)
[16] = target: HIV-1 Env of pseudovirus isolate MGRM-G-004 (subtype G) (HIV-1)
[17] = target: HIV-1 Env of isolate MGRM-F1-023 (subtype F) (HIV-1)
[18] = target: HIV-1 Env of pseudovirus isolate MGRM-G-017 (subtype G) (HIV-1)
[19] = target: HIV-1 Env of isolate MGRM-F1-012 (subtype F) (HIV-1)
[20] = target: HIV-1 Env of isolate MGRM-D-013 (subtype D) (HIV-1)
[21] = target: HIV-1 Env of pseudovirus isolate MGRM-G-024 (subtype G) (HIV-1)
[22] = target: HIV-1 Env of pseudovirus isolate MGRM-G-011 (subtype G) (HIV-1)
[23] = target: HIV-1 Env of isolate 92UG005 (subtype D) (HIV-1)
[24] = target: HIV-1 Env of isolate MGRM-D-008 (subtype D) (HIV-1)
[25] = target: HIV-1 Env of isolate MGRM-D-016 (subtype D) (HIV-1)
[26] = target: HIV-1 Env of isolate MGRM-F1-018 (subtype F) (HIV-1)
[27] = target: HIV-1 Env of isolate MGRM-D-012 (subtype D) (HIV-1)
[28] = target: HIV-1 Env of isolate MGRM-D-024 (subtype D) (HIV-1)
[29] = target: HIV-1 Env of isolate MGRM-F1-016 (subtype F) (HIV-1)
[30] = target: HIV-1 Env of isolate MGRM-D-014 (subtype D) (HIV-1)
[31] = target: HIV-1 Env of pseudovirus isolate MGRM-G-014 (subtype G) (HIV-1)
[32] = target: HIV-1 Env of isolate MGRM-D-019 (subtype D) (HIV-1)
[33] = target: HIV-1 Env of pseudovirus isolate MGRM-G-016 (subtype G) (HIV-1)
[34] = target: HIV-1 Env of isolate 92UG024 (subtype D) (HIV-1)
[35] = target: HIV-1 Env of isolate MGRM-D-020 (subtype D) (HIV-1)
[36] = target: HIV-1 Env of isolate MGRM-D-028 (subtype D) (HIV-1)
[37] = target: HIV-1 Env of isolate MGRM-F1-022 (subtype F) (HIV-1)
[38] = target: HIV-1 Env of isolate MGRM-F1-004 (subtype F) (HIV-1)
[39] = target: HIV-1 Env of pseudovirus isolate MGRM-G-009 (subtype G) (HIV-1)
[40] = target: HIV-1 Env of pseudovirus isolate MGRM-G-013 (subtype G) (HIV-1)
[41] = target: HIV-1 Env of isolate MGRM-F1-006 (subtype F) (HIV-1)
[42] = target: HIV-1 Env of pseudovirus isolate MGRM-G-027 (subtype G) (HIV-1)
[43] = target: HIV-1 Env of isolate 92UG046 (subtype D) (HIV-1)
[44] = target: HIV-1 Env of pseudovirus isolate MGRM-G-015 (subtype G) (HIV-1)
[45] = target: HIV-1 Env of pseudovirus isolate MGRM-G-019 (subtype G) (HIV-1)
[46] = target: HIV-1 Env of pseudovirus isolate MGRM-G-028 (subtype G) (HIV-1)
[47] = target: HIV-1 Env of isolate MGRM-D-026 (subtype D) (HIV-1)
[48] = target: HIV-1 Env of isolate MGRM-F1-014 (subtype F) (HIV-1)
[49] = target: HIV-1 Env of isolate MGRM-F1-015 (subtype F) (HIV-1)
[50] = target: HIV-1 Env of isolate MGRM-D-004 (subtype D) (HIV-1)
[51] = target: HIV-1 Env of pseudovirus isolate MGRM-G-025 (subtype G) (HIV-1)
[52] = target: HIV-1 Env of pseudovirus isolate MGRM-G-006 (subtype G) (HIV-1)
[53] = target: HIV-1 Env of isolate 98CN006 (subtype CRF08_BC) (HIV-1)
[54] = target: HIV-1 Env of isolate MGRM-F1-008 (subtype F) (HIV-1)
[55] = target: HIV-1 Env of isolate MGRM-D-002 (subtype D) (HIV-1)
[56] = target: HIV-1 Env of isolate MGRM-D-018 (subtype D) (HIV-1)
[57] = target: HIV-1 Env of isolate MGRM-F1-013 (subtype F) (HIV-1)
[58] = target: HIV-1 Env of isolate MGRM-D-003 (subtype D) (HIV-1)

B1: PGT-126 (antibody, V domains shown)
VH: QPQLQESGPGLVEASETLSLTCTVSGDSTAACDYFWGWVRQPPGKGLEWIGGLSHCAGYYNTGWTYHNPSLKSRLTISLDTPKNQVFLKLNSVTAADTAIYYCARFDGEVLVYHDWPKPAWVDLWGRGTLVTVSS
VL: QSALTQPPSASGSPGQSISISCTGTSNRFVSWYQQHPGKAPKLVIYGVNKRPSGVPDRFSGSKSGNTASLTVSGLQTDDEAVYYCSSLVGNWDVIFGGGTKLTVL
**Q.** Which results are given for B1?
**A.** IC50 (neutralization) [1]: > 50 µg/mL; IC50 [2]: > 50 µg/mL; IC50 (neutralization) [3]: 0.009 µg/mL; IC50 (neutralization) [4]: > 50 µg/mL; IC50 (neutralization) [5]: > 50 µg/mL; IC50 (neutralization) [6]: 0.038 µg/mL; IC50 (neutralization) [7]: > 50 µg/mL; IC50 (neutralization) [8]: 0.047 µg/mL; IC50 [9]: 0.038 µg/mL; IC50 (neutralization) [10]: 0.084 µg/mL; IC50 (neutralization) [11]: 0.792 µg/mL; IC50 (neutralization) [12]: > 50 µg/mL; IC50 (neutralization) [13]: > 50 µg/mL; IC50 (neutralization) [14]: 0.019 µg/mL; IC50 (neutralization) [15]: > 50 µg/mL; IC50 [16]: > 50 µg/mL; IC50 (neutralization) [17]: 0.009 µg/mL; IC50 [18]: > 50 µg/mL; IC50 (neutralization) [19]: 0.3 µg/mL; IC50 (neutralization) [20]: > 50 µg/mL; IC50 [21]: > 50 µg/mL; IC50 [22]: 7.32 µg/mL; IC50 (neutralization) [23]: 0.037 µg/mL; IC50 (neutralization) [24]: 43.1 µg/mL; IC50 (neutralization) [25]: > 50 µg/mL; IC50 (neutralization) [26]: 14.9 µg/mL; IC50 (neutralization) [27]: > 50 µg/mL; IC50 (neutralization) [28]: 0.376 µg/mL; IC50 (neutralization) [29]: > 50 µg/mL; IC50 (neutralization) [30]: 0.03 µg/mL; IC50 [31]: 0.009 µg/mL; IC50 (neutralization) [32]: > 50 µg/mL; IC50 [33]: > 50 µg/mL; IC50 (neutralization) [34]: > 50 µg/mL; IC50 (neutralization) [35]: 0.023 µg/mL; IC50 (neutralization) [36]: > 50 µg/mL; IC50 (neutralization) [37]: > 50 µg/mL; IC50 (neutralization) [38]: 0.063 µg/mL; IC50 [39]: > 50 µg/mL; IC50 [40]: 48.8 µg/mL; IC50 (neutralization) [41]: 0.078 µg/mL; IC50 [42]: 0.875 µg/mL; IC50 (neutralization) [43]: > 50 µg/mL; IC50 [44]: > 50 µg/mL; IC50 [45]: 0.018 µg/mL; IC50 [46]: 0.012 µg/mL; IC50 (neutralization) [47]: > 50 µg/mL; IC50 (neutralization) [48]: > 50 µg/mL; IC50 (neutralization) [49]: > 50 µg/mL; IC50 (neutralization) [50]: > 50 µg/mL; IC50 [51]: 17.1 µg/mL; IC50 [52]: > 50 µg/mL; IC50 (neutralization) [53]: 0.046 µg/mL; IC50 (neutralization) [54]: > 50 µg/mL; IC50 (neutralization) [55]: 0.039 µg/mL; IC50 (neutralization) [56]: 0.009 µg/mL; IC50 (neutralization) [57]: > 50 µg/mL; IC50 (neutralization) [58]: 0.021 µg/mL

B2: PGT-127 (antibody, V domains shown)
VH: QPQLQESGPGLVEASETLSLTCTVSGDSTGRCNYFWGWVRQPPGKGLEWIGSLSHCRSYYNTDWTYHNPSLKSRLTISLDTPKNQVFLRLTSVTAADTATYYCARFGGEVLVYRDWPKPAWVDLWGRGTLVVTVS
VL: QSALTQPPSASGSPGQSITISCTGTSNNFVSWYQQYPGKAPKLVIYEVNKRPSGVPDRFSGSKSGSTASLTVSGLQADDEGVYYCSSLVGNWDVIFGGGTKLTVL
**Q.** What does the source list for B2?
**A.** IC50 (neutralization) [1]: > 50 µg/mL; IC50 [2]: > 50 µg/mL; IC50 (neutralization) [3]: 0.015 µg/mL; IC50 (neutralization) [4]: > 50 µg/mL; IC50 (neutralization) [5]: > 50 µg/mL; IC50 (neutralization) [6]: 7.09 µg/mL; IC50 (neutralization) [7]: > 50 µg/mL; IC50 (neutralization) [8]: 0.056 µg/mL; IC50 [9]: 0.113 µg/mL; IC50 (neutralization) [10]: 2.23 µg/mL; IC50 (neutralization) [11]: 6.04 µg/mL; IC50 (neutralization) [12]: > 50 µg/mL; IC50 (neutralization) [13]: > 50 µg/mL; IC50 (neutralization) [14]: 0.09 µg/mL; IC50 (neutralization) [15]: > 50 µg/mL; IC50 [16]: > 50 µg/mL; IC50 (neutralization) [17]: 0.119 µg/mL; IC50 [18]: > 50 µg/mL; IC50 (neutralization) [19]: > 50 µg/mL; IC50 (neutralization) [20]: > 50 µg/mL; IC50 [21]: > 50 µg/mL; IC50 [22]: > 50 µg/mL; IC50 (neutralization) [23]: 1.11 µg/mL; IC50 (neutralization) [24]: > 50 µg/mL; IC50 (neutralization) [25]: > 50 µg/mL; IC50 (neutralization) [26]: 3.59 µg/mL; IC50 (neutralization) [27]: > 50 µg/mL; IC50 (neutralization) [28]: 1.95 µg/mL; IC50 (neutralization) [29]: > 50 µg/mL; IC50 (neutralization) [30]: 0.393 µg/mL; IC50 [31]: 0.009 µg/mL; IC50 (neutralization) [32]: > 50 µg/mL; IC50 [33]: > 50 µg/mL; IC50 (neutralization) [34]: > 50 µg/mL; IC50 (neutralization) [35]: 0.015 µg/mL; IC50 (neutralization) [36]: > 50 µg/mL; IC50 (neutralization) [37]: > 50 µg/mL; IC50 (neutralization) [38]: 0.068 µg/mL; IC50 [39]: > 50 µg/mL; IC50 [40]: 7.7 µg/mL; IC50 (neutralization) [41]: 7.17 µg/mL; IC50 [42]: > 50 µg/mL; IC50 (neutralization) [43]: > 50 µg/mL; IC50 [44]: > 50 µg/mL; IC50 [45]: 0.429 µg/mL; IC50 [46]: 0.032 µg/mL; IC50 (neutralization) [47]: > 50 µg/mL; IC50 (neutralization) [48]: > 50 µg/mL; IC50 (neutralization) [49]: > 50 µg/mL; IC50 (neutralization) [50]: > 50 µg/mL; IC50 [51]: 19.3 µg/mL; IC50 [52]: > 50 µg/mL; IC50 (neutralization) [53]: 0.067 µg/mL; IC50 (neutralization) [54]: > 50 µg/mL; IC50 (neutralization) [55]: 0.6 µg/mL; IC50 (neutralization) [56]: 0.021 µg/mL; IC50 (neutralization) [57]: > 50 µg/mL; IC50 (neutralization) [58]: 0.029 µg/mL

Reference: patent US20160264649A1
